± gives the standard error. Variants at the floor of the assay were thinned out.
B1: glmS ribozyme (parent)
chain: AUAAAAGCGCCAGAACUACAGAAAUGUAGUUGACGAGGAGGAGGUUUAUCGAAUUUUCGGCGGAUGCCUCCAAA

Variants of: B1
Experiment: self-cleavage kobs at 640 uM GlcN6P; higher = faster cleavage; RNA array
Conditions: with glucosamine-6-phosphate
How it was run: (§1)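 In situ transcription by E. coli RNA polymerase produced barcoded ribozyme variants on sequenced MiSeq chips, and a hybridised Cy3 probe tracked them at 37 °C. Glucosamine-6-phosphate was flowed in at 40 μM to 10 mM in HEPES/KCl/Mg(OAc)2 buffer. kcat and KM were taken from weighted Michaelis–Menten fits of kobs values from exponential decay fits.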

| Variant | self-cleavage kobs at 640 uM GlcN6P |
| --- | --- |
| AUAAAAGCGCCAGAACUACAGAAAUGUAGUAGACGUGGAGGAGGUUUUUCGAAUUUUCGGCGGAUGCCCCCAAA [U31A A36U A48U U69C] | < 1e-05 s⁻¹ |
| AUAAAAGCGCCAGAACUACAGAAAUGUAUUUUACGAGGAGGAGGUUUAUCGAAUUUUUGGCGGAUGACUCCAAA [G29U G32U C58U C67A] | 3.68e-05 ± 1.8e-05 s⁻¹ |
| AUAAAAGCGCCAGAACUACAGAAAUGUAGCUGAUGAGGAGGAGGUUUAUCGAAUUUACGGCGGAUGCCUCCAAA [U30C C34U U57A] | < 1e-05 s⁻¹ |
| AUAAAAGCGCCAGAACUACAGAAAUGUAGGUGAAGAGGAGGAGGUUAAUCGAAUUUUCGGCGGAUGCCUCCAAA [U30G C34A U47A] | < 1e-05 s⁻¹ |
| AUAAAAGCGCCAGAACUACAGAAAUGUAGUUCACGAGGAGGUGGUUUAUCGAGUUUACGGCGGGUGCCUCCAAA [G32C A42U A53G U57A A64G] | < 1e-05 s⁻¹ |
| AUAAAAGCGCCAGAACUACAGAAAUGUAUUUGACGAGGAGGAGGUUUAUCGAAUUCUCGGGGGAUGCCUCCAAA [G29U U56C C61G] | < 1e-05 s⁻¹ |
| AUAAAAGCGCCAGAACUACAGAAAUGUAGCCGACGAGGAGGAGGUUUAUCGAAUUUUCUGGGGAUGCCUGCAAA [U30C U31C G59U C61G C70G] | < 1e-05 s⁻¹ |
| AUAAAAGCGCCAGAACUACAGAAAUGUAGCUGGCGAGGAGGAGGUUUAUCGGAUUUUCGGCGGAUGCCUCCAAA [U30C A33G A52G] | < 1e-05 s⁻¹ |
| AUAAAAGCGCCAGAACUACAGAAAUGUAGUCGACGAGGAGAAGGUUUAUCGAAUUUUCGGCGCAUGCAUCCAAA [U31C G41A G63C C68A] | < 1e-05 s⁻¹ |
| AUAAAAGCGCCAGAACUACAGAAAUGUAGAUGACGAGAAGGAGGUUUAUAGAAUUUUCGGCGGAUUCCUCCAAA [U30A G38A C50A G66U] | < 1e-05 s⁻¹ |
| AUAAAAGCGCCAGAACUACAGAAAUGUAGUAGAUGAGGAGGCGGUUUUUCGAAUUUUCGGCUGAUGCCUCCAAA [U31A C34U A42C A48U G62U] | < 1e-05 s⁻¹ |
| AUAAAAGCGCCAGAACUACAGAAAUGUAGUAGUCGAGGAGGAGGUUUGUCGAAUUUUCGGCGGAUGCCUCCAAA [U31A A33U A48G] | < 1e-05 s⁻¹ |
| AUAAAAGCGCCAGAACUACAGAAAUGUAGAUGACGAGGAGGAGGUUUAUCGAAUGUUCGGUGGAUGCCUCCAAA [U30A U55G C61U] | < 1e-05 s⁻¹ |
| AUAAAAGCGCCAGAACUACAGAAAUGUAGUGGACGAGGAGGAGGCUUAUCGAGUUUUCGGCGGAUGCCUCCAAA [U31G U45C A53G] | 0.000175 ± 3.2e-05 s⁻¹ |
| AUAAAAGCGCCAGAACUACAGAAAUGUAGUUCACGAUGAGGAGGUUUAUCCAAUUUUCGGCGGAUGCCUCCAAA [G32C G37U G51C] | < 1e-05 s⁻¹ |
| AUAAAAGCGCCAGAACUACAGAAAUGUAUUUGACGAGGAGGAGGUUUAUCGACUUUUCGGCGGAUGCCUCCAAA [G29U A53C] | 0.00015 ± 7.4e-05 s⁻¹ |
| AUAAAAGCGCCAGAACUACAGAAAUGUAGUUCACGAGGAGGAGGUUUAUCCAAUUUUCGGCGGGUGCCUUCAAA [G32C G51C A64G C70U] | < 1e-05 s⁻¹ |
| AUAAAAGCGCCAGAACUACAGAAAUGUAGUGGACGAGGAGGAGGUUUAUCGAAUUUUCGUCGGAAGCCUCCAAA [U31G G60U U65A] | < 1e-05 s⁻¹ |
| AUAAAAGCGCCAGAACUACAGAAAUGUAGCUGACGAGGAGGAGGUUUAUCGAAUUUUCGGCGUAUGCCUGCAAA [U30C G63U C70G] | 3.84e-05 ± 1.8e-05 s⁻¹ |
| AUAAAAGCGCCAGAACUACAGAAAUGUAUUUGACCAGGAGGAGGUUUAUCGGAUUUUCGGCGGAUGCCUCCAAA [G29U G35C A52G] | < 1e-05 s⁻¹ |
| AUAAAAGCGCCAGAACUACAGAAAUGUAGUUUACGAGGAGAAGGUUUAUCGAAUUUUCGGCGGAUGCAUCCAAA [G32U G41A C68A] | < 1e-05 s⁻¹ |
| AUAAAAGCGCCAGAACUACAGAAAUGUAGCUGACGAGGAGGAGGUUUAUCGAUUUUGCGGCGGCUGCCGCCAAA [U30C A53U U57G A64C U69G] | 0.000129 ± 3.2e-05 s⁻¹ |
| AUAAAAGCGCCAGAACUACAGAAAUGUAGUUAACGGGGCGUAUGUUUAUCGAAUUUUCGGCGGAUGCCUCCAAA [G32A A36G A39C G41U G43U] | < 1e-05 s⁻¹ |
| AUAAAAGCGCCAGAACUACAGAAAUGUAGUGGACGACGAGGAGGUUUAUCGAAUUUUCGGCGGAUGCCGCCAAA [U31G G37C U69G] | 9.22e-05 ± 3.2e-05 s⁻¹ |
| AUAAAAGCGCCAGAACUACAGAAAUGUAGAAGACGAGGAGGAGGUUUAUCGAAUUUUCGGCGGAUACCUCCAAA [U30A U31A G66A] | 0.000765 ± 0.00037 s⁻¹ |
| AUAAAAGCGCCAGAACUACAGAAAUGUAGGUGACGAGGAGGAGGUUUAUCGAAUUAUCGGCGGAUGCGUCCAAA [U30G U56A C68G] | 5.24e-05 ± 2.3e-05 s⁻¹ |
| AUAAAAGCGCCAGAACUACAGAAAUGUAGAUGACGAGGAGUAUGUUUAUCGAACUUUCGGCGGAUGCCUCCAAA [U30A G41U G43U U54C] | < 1e-05 s⁻¹ |

Variants of: B1
Experiment: self-cleavage kobs at 2500 uM GlcN6P; higher = faster cleavage; RNA array
Conditions: with glucosamine-6-phosphate
How it was run: as §1

| Variant | self-cleavage kobs at 2500 uM GlcN6P |
| --- | --- |
| AUAAAAGCGCCAGAACUACAGAAAUGUAUUUUACGAGGAGGAGGUUUAUCGAAUUUUUGGCGGAUGACUCCAAA [G29U G32U C58U C67A] | 8.93e-05 ± 2.6e-05 s⁻¹ |
| AUAAAAGCGCCAGAACUACAGAAAUGUAGUUCACGAGGAGGUGGUUUAUCGAGUUUACGGCGGGUGCCUCCAAA [G32C A42U A53G U57A A64G] | < 1e-05 s⁻¹ |
| AUAAAAGCGCCAGAACUACAGAAAUGUAGUAGUCGAGGAGGAGGUUUGUCGAAUUUUCGGCGGAUGCCUCCAAA [U31A A33U A48G] | < 1e-05 s⁻¹ |
| AUAAAAGCGCCAGAACUACAGAAAUGUAGUGGACGAGGAGGAGGCUUAUCGAGUUUUCGGCGGAUGCCUCCAAA [U31G U45C A53G] | 0.000528 ± 9.1e-05 s⁻¹ |
| AUAAAAGCGCCAGAACUACAGAAAUGUAUUUGACGAGGAGGAGGUUUAUCGACUUUUCGGCGGAUGCCUCCAAA [G29U A53C] | 0.00118 ± 0.00032 s⁻¹ |
| AUAAAAGCGCCAGAACUACAGAAAUGUAUUUGACCAGGAGGAGGUUUAUCGGAUUUUCGGCGGAUGCCUCCAAA [G29U G35C A52G] | < 1e-05 s⁻¹ |
| AUAAAAGCGCCAGAACUACAGAAAUGUAGCUGACGAGGAGGAGGUUUAUCGAUUUUGCGGCGGCUGCCGCCAAA [U30C A53U U57G A64C U69G] | 0.000128 ± 5.2e-05 s⁻¹ |

Variants of: B1
Experiment: self-cleavage kobs at 10000 uM GlcN6P; higher = faster cleavage; RNA array
Conditions: with glucosamine-6-phosphate
How it was run: as §1

| Variant | self-cleavage kobs at 10000 uM GlcN6P |
| --- | --- |
| AUAAAAGCGCCAGAACUACAGAAAUGUAGAUGACGAGGAGGAGGUUUAUCGAAUGUUCGGUGGAUGCCUCCAAA [U30A U55G C61U] | < 1e-05 s⁻¹ |
| AUAAAAGCGCCAGAACUACAGAAAUGUAUUUGACGAGGAGGAGGUUUAUCGACUUUUCGGCGGAUGCCUCCAAA [G29U A53C] | 0.000874 ± 0.00028 s⁻¹ |
